Laboratory results: patent US20240002531A1 (ONO PHARMACEUTICAL, published 2024)
Where two headings read alike, the source gives them in different places.

Tests used:
Experiment in all cases: peptide ELISA, OD 655 nm
[1] = molecular target: T1, P606A peptide (HER2 603-622 with P606A) (human)
T1 peptide: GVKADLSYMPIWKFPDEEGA

[2] = molecular target: T2, HER2 peptide p603-622 (amino acids 603 to 622 of human HER2) (human)
T2 construct: Synthetic peptide; also called wild-type HER2 peptide
T2 peptide: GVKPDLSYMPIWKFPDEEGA

[3] = molecular target: T3, P617A peptide (HER2 603-622 with P617A) (human)
T3 peptide: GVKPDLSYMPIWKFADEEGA

[4] = molecular target: T4, G621A peptide (HER2 603-622 with G621A) (human)
T4 peptide: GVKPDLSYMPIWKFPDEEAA

[5] = molecular target: T5, W614A peptide (HER2 603-622 with W614A) (human)
T5 peptide: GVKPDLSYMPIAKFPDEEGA

[6] = molecular target: T6, HER2_604-622C peptide (NH2-VKPDLSYMPIWKFPDEEGAC-COOH) (human)
T6 construct: KLH was added for immunisation, the peptide itself was coated in the screening ELISA
T6 peptide: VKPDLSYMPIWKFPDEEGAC

[7] = molecular target: T7, D618A peptide (HER2 603-622 with D618A) (human)
T7 peptide: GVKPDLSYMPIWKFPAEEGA

[8] = molecular target: T8, P612A peptide (HER2 603-622 with P612A) (human)
T8 peptide: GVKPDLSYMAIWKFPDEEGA

[9] = molecular target: T9, L608A peptide (HER2 603-622 with L608A) (human)
T9 peptide: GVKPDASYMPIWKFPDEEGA

[10] = molecular target: T10, Y610A peptide (HER2 603-622 with Y610A) (human)
T10 peptide: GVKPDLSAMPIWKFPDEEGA

[11] = molecular target: T11, S609A peptide (HER2 603-622 with S609A) (human)
T11 peptide: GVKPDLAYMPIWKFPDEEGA

[12] = molecular target: T12, M611A peptide (HER2 603-622 with M611A) (human)
T12 peptide: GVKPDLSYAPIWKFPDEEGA

[13] = molecular target: T13, D607A peptide (HER2 603-622 with D607A) (human)
T13 peptide: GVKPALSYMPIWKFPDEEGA

[14] = molecular target: T14, E619A peptide (HER2 603-622 with E619A) (human)
T14 peptide: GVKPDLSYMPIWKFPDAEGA

[15] = molecular target: T15, K605A peptide (HER2 603-622 with K605A) (human)
T15 peptide: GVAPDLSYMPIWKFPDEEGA

[16] = molecular target: T16, V604A peptide (HER2 603-622 with V604A) (human)
T16 peptide: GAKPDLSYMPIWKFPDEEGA

[17] = molecular target: T17, F616A peptide (HER2 603-622 with F616A) (human)
T17 peptide: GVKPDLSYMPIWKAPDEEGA

[18] = molecular target: T18, K615A peptide (HER2 603-622 with K615A) (human)
T18 peptide: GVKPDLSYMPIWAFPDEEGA

[19] = molecular target: T19, E620A peptide (HER2 603-622 with E620A) (human)
T19 peptide: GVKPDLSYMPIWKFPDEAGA

[20] = molecular target: T20, I613A peptide (HER2 603-622 with I613A) (human)
T20 construct: also called 1613A
T20 peptide: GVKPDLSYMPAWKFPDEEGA

[21] = molecular target: T21, G603A peptide (HER2 603-622 with G603A) (human)
T21 peptide: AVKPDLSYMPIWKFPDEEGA

[22] = molecular target: T1, P606A peptide (HER2 603-622 with P606A)
[23] = molecular target: T2, HER2 peptide p603-622 (amino acids 603 …)
[24] = molecular target: T3, P617A peptide (HER2 603-622 with P617A)
[25] = molecular target: T4, G621A peptide (HER2 603-622 with G621A)
[26] = molecular target: T5, W614A peptide (HER2 603-622 with W614A)
[27] = molecular target: T6, HER2_604-622C peptide …
[28] = molecular target: T7, D618A peptide (HER2 603-622 with D618A)
[29] = molecular target: T8, P612A peptide (HER2 603-622 with P612A)
[30] = molecular target: T9, L608A peptide (HER2 603-622 with L608A)
[31] = molecular target: T10, Y610A peptide (HER2 603-622 with Y610A)
[32] = molecular target: T11, S609A peptide (HER2 603-622 with S609A)
[33] = molecular target: T12, M611A peptide (HER2 603-622 with M611A)
[34] = molecular target: T13, D607A peptide (HER2 603-622 with D607A)
[35] = molecular target: T14, E619A peptide (HER2 603-622 with E619A)
[36] = molecular target: T15, K605A peptide (HER2 603-622 with K605A)
[37] = molecular target: T16, V604A peptide (HER2 603-622 with V604A)
[38] = molecular target: T17, F616A peptide (HER2 603-622 with F616A)
[39] = molecular target: T18, K615A peptide (HER2 603-622 with K615A)
[40] = molecular target: T19, E620A peptide (HER2 603-622 with E620A)
[41] = molecular target: T20, I613A peptide (HER2 603-622 with I613A)
[42] = molecular target: T21, G603A peptide (HER2 603-622 with G603A)

B1: H2Mab-299 antibody (antibody, mouse IgG1, kappa, V domains shown)
VH: EVQLVESGGGLVQPGGSLKLSCAASGFTFNIYGIFWVRQTPDKRLELVATIHSNGGRIYYPDSVKGRFTISRDNAKNTLYLQMSSLKSEDTAMYYCAREGGDYWGQGTSVTVSS
VL: DIVMTQSHKVMATSVGDRVSITCKASQDVGTAVAWYQQKPGQSPKLLIYWASTRHTGVPDRFTGSGSGTDFTLTINNVLSEDLVDYFCQQYRRYPLTFGAGTKLELKR
B1: binds [1]; binds [2]; binds [3]. B1: binds [4]; binds [5]; binds [6]. B1: binds [7]; binds [8]; binds [9]. B1: binds [10]; binds [11]; binds [12]. B1: binds [13]; binds [14]; binds [15]. B1: binds [16]; no binding (tested: 10 ug/ml) [17]; binds [18]. B1: binds [19]; binds [20]; binds [21].

B2: H2Mab-291 antibody (antibody, mouse IgG3, V domains shown)
VH: EVQLQQSGPELVKPGASMKISCKASGYSFTGYTMNWVKQSHGKNLEWIGLINPYNGNTRYNQKFQDKATLTVDRSSSTAYMELLSLTSEDSAVYYCVKEPSDYWGQGTTLTVSS
VL: DVVMTQTPLSLPVSLGDQASISCRSSQSLVHINGNTYLHWYLQKPGQSPKLLIYKVSKRFSGVPDRFSGSGSGTDFTLKISRVEAADLGVYFCSQSTHVPPTFGGGTKLEIKR
B2: binds [22]; binds [23]; binds [24]. B2: binds [25]; binds [26]; binds [27]. B2: binds [28]; binds [29]; binds [30]. B2: binds [31]; binds [32]; binds [33]. B2: binds [34]; binds [35]; binds [36]. B2: binds [37]; binds [38]; binds [39]. B2: binds [40]; binds [41]; binds [42].

B3: H2Mab-292 antibody (antibody, mouse IgG3, V domains shown)
VH: EVQLQQSGPELVKPGASRKISCKASGYSFTGYTMNWVKKSHGKNLEWIGLINPSNGGTRYNQKFKDKATLTVDKSSSTAYMELLSLTSEDSAVYYCVKEPSDYWGQGTTLTVSS
VL: DVVMTQTPLSLPVSLGDQASISCRSSQSLVHSNGNTYLHWYLQKPGQSPKLLIYKVSNRFSGVPDRFSGRGSGTDFTLKISRVEAEDLGIYFCSQSTHVPPTFGGGTKLEIKR
B3: binds [22]; binds [23]; binds [24]. B3: binds [25]; no binding (tested: 10 ug/ml) [26]; binds [27]. B3: binds [28]; binds [29]; binds [30]. B3: binds [31]; binds [32]; binds [33]. B3: binds [34]; binds [35]; binds [36]. B3: binds [37]; binds [38]; binds [39]. B3: binds [40]; binds [41]; binds [42].
